Measured values reported in patent publication US10077295B2, “Glycoproteins having lipid mobilizing properties and therapeutic uses thereof” (Aston University, priority 2010, dated 2018).
Marks after values point to notes of the source that are not given here.

Assays:
[1] = tested on: male Wistar rats; test: mature male Wistar rats, daily i.v. ZAG for 10 days: body weight, body composition, plasma metabolites; type: in vivo, rat
Method: Animal—Rats. Mature male Wistar rats (one year old from our own colony) weighing 540±82.5 g were housed individually and treated once daily i.v., with either ZAG in PBS (100 μl) (50 μg per 100 g body weight), or with PBS (100 μl) as a control. Both food and water intake and body weight were measured daily. Animals were given free access to food (Special Diet Services, Essex, UK) and water ad libitum. The animal experiment was carried out under the welfare conditions imposed by the British Home Office. After 10 days treatment the animals were terminated and the body composition determined. Animals were heated to 80-90° C. for 7 days until constant weight was achieved. The water content was then determined from the difference between the wet and dry weight. Lipids were extracted from the dry carcass using a sequence of chloroform:methanol (1:1), ethanol/acetone (1:1) and diethyl ether (120 ml of each) as described by Lundholm et al (14). The solvents were evaporated and the fat weighed. The non-fat carcass mass was calculated as the difference between the initial weight of the carcass and the weight of water and fat.
Serum Metabolite Determinations. Non-esterified fatty acids (NEFA) were determined using a Wako-ASC-ACOD kit (Wako Chemical GmbH, Neuss, Germany). Triglycerides were determined using a Triglyceride kit (Sigma Chemical Co., Poole, United Kingdom) and 3-hydroxybutyrate by a quantitative enzymatic determination kit (Sigma). Glucose was measured using a glucose analyser (Beckman, Irvine, Calif.) and glycerol was determined enzymatically using the method of Wieland as described in “Methods of Enzymatic Analysis” (Ed. Bergmeyer, H. U.) Vol. 3, pp1404-1409, published by Academic Press, London (1974).

[2] = biological target: T1, human β1-AR (Homo sapiens, UniProt P08588); test: Cyclic AMP production in CHO-K1 cells transfected with β1-AR; type: cell-based; details: any concentration
T1 construct: host or cells: CHO-K1
Method: Binding Studies and Cyclic AMP Determination. CHO-K1 cells transfected with the human β1- and β2-AR obtained from University of Nottingham, UK, while CHOK1 cells transfected with the β3-AR were obtained from Astra Zeneca, Macclesfield, Cheshire, UK. Gene expression was under the control of hygromycin, together with a β-gal reporter construct, selected for resistance to G418. They were maintained in DMEM supplemented with 2 mM glutamine, hygromycin B ([…]), G418 ([…]), and 10% FCS, under an atmosphere of 10% CO2 in air. To determine the effect of agonists on cyclic AMP production, cells were grown in 24-well plates containing 1 ml of nutrient medium.

[3] = biological target: T2, human β2-AR (Homo sapiens, UniProt P07550); test: [125I] ZAG binding to crude membranes of CHO-K1 β2 cells; details: single freeze/thaw cycle
T2 construct: host or cells: CHO-K1
Method: (§1) [^125I] labelling of ZAG. One iodo bead that had been washed and dried was incubated with Na [^125I] (1 mCi per 100 μg protein) for 5 min in PBS, then ZAG (100 μg protein) was added and left for a further 15 min. The reaction was terminated by removal of the iodo bead, while free Na [^125I] was removed using a Sephadex G25 column eluted with 0.1MNaI. The [^125I] ZAG was concentrated against PBS using a Microcon microconcentrator with a filter cut-off of Mr 10,000. The specific activity of the [^125I] ZAG was 8 Cimg protein^1.
(§2) For binding studies cells were sonicated in 2 mM Tris HCl, pH7.5, containing […] and crude total membranes were pelleted by centrifugation (13,000 g; 15 min) at 4° C. Binding studies were carried out at 37° C. by incubating membranes (500 μg protein) in 0.4 ml 50 mM Tris HCl, pH 7.5, containing 0.5 mM MgCl2 for 60 min with various concentrations of [^125I] ZAG (3,000 to 15,000 cpm) in the absence or presence of 100 μM non-labelled ZAG. The membranes were then precipitated by centrifugation at 13000 g for 20 min, the supernatant was removed and the [^125I] bound to the pellet was quantitated using a Packard Corbra Model 5005 Auto-gamma counter. Binding was analysed using non-linear regression analysis (GraphPad Prism, Version 5.04). Specific binding was regarded as the amount of labelled ZAG displaced by non-radioactive ZAG.

[4] = biological target: T1, human β1-AR; test: [125I] ZAG binding to crude membranes of CHO-K1 β1 cells
Method: as §1, §2

[5] = tested on: β3-AR, β1-AR and β2-AR expression; test: Western blot of β-AR expression in tissues of ob/ob mice after 5 days ZAG; type: in vivo, mouse
Method: Western Blot Analysis. WAT, BAT, heart and gastrocnemius muscle were thawed, washed in PBS, and lysed in Phosphsafe™ Extraction reagent for 5 min at room temperature, followed by sonication at 4° C. The supernatant formed by centrifugation at 18,000 g for 5 min at 4° C. was used for Western blotting. Cytosolic protein (5 μg for UCP's and 20 μg for β-AR) was resolved on 12% sodium dodecylsulphate polyacrylamide gels by electrophoresis at 180V for about 1 h and transferred on to 0.45 μm nitrocellulose membranes, which had been blocked with 5% (w/v) non-fat dried milk (Marvel) in Tris-buffered saline, pH 7.5, at 4° C. overnight. Prior to adding the primary antibodies membranes were washed for 15 min in 0.1% Tween 20-buffered saline. Both primary and secondary antibodies were used at a dilution of 1:1000. Incubation was for 1 h at room temperature and development was by ECL. Blots were scanned by a densitometer to quantify differences.

[6] = biological target: β3-AR (Homo sapiens, UniProt P13945); test: [125I] ZAG binding to crude membranes of CHO-K1 β3 cells; design: host or cells: CHO-K1
Method: as §1, §2

Chain of β3-AR (P13945 whole entry): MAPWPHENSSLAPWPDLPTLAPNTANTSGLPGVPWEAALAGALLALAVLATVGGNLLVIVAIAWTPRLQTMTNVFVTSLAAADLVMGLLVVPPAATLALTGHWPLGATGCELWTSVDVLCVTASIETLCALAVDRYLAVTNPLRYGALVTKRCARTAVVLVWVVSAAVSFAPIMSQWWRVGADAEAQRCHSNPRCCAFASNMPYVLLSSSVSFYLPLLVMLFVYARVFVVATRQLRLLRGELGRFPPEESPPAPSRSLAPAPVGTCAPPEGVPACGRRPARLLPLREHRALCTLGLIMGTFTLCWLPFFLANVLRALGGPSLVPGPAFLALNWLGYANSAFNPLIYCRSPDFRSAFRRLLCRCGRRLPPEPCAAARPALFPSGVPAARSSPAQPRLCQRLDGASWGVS
T1 sequence (P08588 whole entry): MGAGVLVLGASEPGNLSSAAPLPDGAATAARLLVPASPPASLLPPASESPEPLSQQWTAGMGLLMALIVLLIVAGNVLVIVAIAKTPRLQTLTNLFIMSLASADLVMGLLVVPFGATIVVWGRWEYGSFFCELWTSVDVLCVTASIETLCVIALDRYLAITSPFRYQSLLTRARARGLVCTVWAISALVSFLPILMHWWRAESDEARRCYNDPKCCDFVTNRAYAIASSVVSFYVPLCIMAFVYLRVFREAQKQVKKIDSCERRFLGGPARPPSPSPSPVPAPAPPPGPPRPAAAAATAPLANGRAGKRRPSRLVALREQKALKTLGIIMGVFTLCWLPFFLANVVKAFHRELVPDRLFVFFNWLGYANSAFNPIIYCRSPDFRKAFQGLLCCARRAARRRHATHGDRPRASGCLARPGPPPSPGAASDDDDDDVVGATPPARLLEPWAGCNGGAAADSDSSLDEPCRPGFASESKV

B1: ZAG: recombinant full length human zinc-α2-glycoprotein (SEQ ID NO: 1) secreted by transfected HEK293F cells; lipid mobilizing factor (protein, listed as Homo sapiens)
chain: QENQDGRYSLTYIYTGLSKHVEDVPAFQALGSLNDLQFFRYNSKDRKSQPMGLWRQVEGMEDWKEDSQLQKAREDMETLKDIVEYYNDSNGSHVLQGRFGCEIENNRSSGAFWKYYYDGKDYIEFNKEIPAWVPFDPAAQITKQKWEAEPVYVQRAKAYLEEECPATLRKYLKYSKNILDRQDPPSVVVTSHQAPGEKKKLKCLAYDFYPGKIDVHWTRAGQVQEPELRGDVLHNGNGTYQSWVVVAVPPQDTAPYSCHVQHSSLAQPLVVPWEAS
time to significant elevation in body temperature ([1]; after the first administration): ≤ 24 h | Final weight ([1]; male rats, after 10 days): 525 ± 1 g | Weight change ([1]; male rats, after 10 days): -5 ± 1 g | elevation in body temperature ([1]; rats): 0.4 °C | Glucose (plasma) ([1]; rats treated for 10 days): 16.2 ± 2.1^c mmol/l | Glycerol (plasma) ([1]; rats treated for 10 days): 450 ± 51^c umol/l | NEFA (plasma) ([1]; rats treated for 10 days): 0.26 ± 0.06^b mEq/l | Trigylcerides (plasma) ([1]; rats treated for 10 days): 1.1 ± 0.09^a mmol/l | decrease in plasma levels of NEFA ([1]; rats, 10 days): 55% | increase in plasma glycerol concentration ([1]; rats, 10 days): 50% | reduction of plasma levels of glucose and triglycerides ([1]; rats, 10 days): 36-37% | decrease in body weight ([1]; rats, after 10 days, 50 μg/100 g b.w. i.v. daily): 5 g | cyclic AMP production [2]: no increase in cyclic AMP | effect of freeze-thawing on binding to β2-AR [3]: eliminated binding | binding to the β1-AR [4]: no binding | expression of β1-AR or β2-AR in gastrocnemius muscle or WAT [5]: no change in expression | increase in β3-AR expression in BAT [5]: 89% | increase in β3-AR expression in WAT [5]: 85% | β3-AR expression in gastrocnemius muscle [5]: two-fold increase | Bmax at β3-AR relative to β2-AR [6]: about three times | Kd at β3-AR, fold lower than that of CGP12177 [6]: about 100 fold | effect of freeze-thawing on binding to β3-AR ([6]; single freeze/thaw cycle): eliminated binding
